We go through six molecules from patent US20190321478A1 (published 2019).

B1: R42P3A9 (TCR, V domains shown)
Valpha: GIQVEQSPPDLILQEGANSTLRCNFSDSVNNLQWFHQNPWGQLINLFYIPSGTKQNGRLSATTVATERYSLLYISSSQTTDSGVYFCAVHNFNKFYFGSGTKLNVKP
Vbeta: AAGVIQSPRHLIKEKRETATLKCYPIPRHDTVYWYQQGPGQDPQFLISFYEKMQSDKGSIPDRFSAQQFSDYHSELNMSSLELGDSALYFCASSLLGQGYNEQFFGPGTRLTVL
B2: R26P2A6 (TCR, V domains shown)
Valpha: QKEVEQDPGPLSVPEGAIVSLNCTYSNSAFQYFMWYRQYSRKGPELLMYTYSSGNKEDGRFTAQVDKSSKYISLFIRDSQPSDSATYLCAMSDVSGGYNKLIFGAGTRLAVHP
Vbeta: EAQVTQNPRYLITVTGKKLTVTCSQNMNHEYMSWYRQDPGLGLRQIYYSMNVEVTDKGDVPEGYKVSRKEKRNFPLILESPSPNQTSLYFCASTTPDGTDEQFFGPGTRLTVL
B3: R37P1H1 (TCR, V domains shown)
Valpha: AQTVTQSQPEMSVQEAETVTLSCTYDTSESNYYLFWYKQPPSRQMILVIRQEAYKQQNATENRFSVNFQKAAKSFSLKISDSQLGDTAMYFCAFGYSGGGADGLTFGKGTHLIIQP
Vbeta: DAGVTQSPTHLIKTRGQQVTLRCSPKSGHDTVSWYQQALGQGPQFIFQYYEEEERQRGNFPDRFSGHQFPNYSSELNVNALLLGDSALYLCASSNEGQGWEAEAFFGQGTRLTVV
B4: R59P2E7 (TCR, V domains shown)
Valpha: KQEVTQIPAALSVPEGENLVLNCSFTDSAIYNLQWFRQDPGKGLTSLLLIQSSQREQTSGRLNASLDKSSGRSTLYIAASQPGDSATYLCAVNSDYKLSFGAGTTVTVRA
Vbeta: AAGVIQSPRHLIKEKRETATLKCYPIPRHDTVYWYQQGPGQDPQFLISFYEKMQSDKGSIPDRFSAQQFSDYHSELNMSSLELGDSALYFCASSLGLGTGDYGYTFGSGTRLTVV
B5: R26P3H1 (TCR, V domains shown)
Valpha: AQSVAQPEDQVNVAEGNPLTVKCTYSVSGNPYLFWYVQYPNRGLQFLLKYITGDNLVKGSYGFEAEFNKSQTSFHLKKPSALVSDSALYFCAVRDMNRDDKIIFGKGTRLHILP
Vbeta: DGGITQSPKYLFRKEGQNVTLSCEQNLNHDAMYWYRQDPGQGLRLIYYSQIVNDFQKGDIAEGYSVSREKKESFPLTVTSAQKNPTAFYLCASSRAEGGEQYFGPGTRLTVT
B6: R26P1A9 (TCR, V domains shown)
Valpha: SQQGEEDPQALSIQEGENATMNCSYKTSINNLQWYRQNSGRGLVHLILIRSNEREKHSGRLRVTLDTSKKSSSLLITASRAADTASYFCLIGASGSRLTFGEGTQLTVNP
Vbeta: DAGVIQSPRHEVTEMGQEVTLRCKPISGHDYLFWYRQTMMRGLELLIYFNNNVPIDDSGMPEDRFSAKMPNASFSTLKIQPSEPRDSAVYFCASSYFGWNEKLFFGSGTQLSVL

One test deals with T1, MAGEA1 (peptide MAGEA1-003) peptide on HLA-A*02:01 (human).
T1 peptide: KVLEYVIKV
Put plainly: multimer staining.
For the molecule B1, the binding result is reported as “recognises”.
On the same count and under the same terms, as for B2, the entry is “recognises”.
Still for that read-out and setting: next, B3: “recognises”; B4: “recognises”; B5: “recognises”.
The same measure, in the same setting: next, B6: “recognises”.

For the next test, the target named is T2, GALNTL4 (peptide code GALNTL4-001) peptide on HLA-A*02:01 (human).
T2 peptide: KLTEYVDKV
Briefly: cytokine release.
Regarding B1, the binding result was “no recognition”.
As to B2, the binding result is recorded as “no recognition”.
The same measure, in the same setting: as for B3, the entry is “no recognition”; as for B4, “no recognition”; as for B5, “no recognition”.
Still for that read-out and setting: as for B6, the entry is “no recognition”.

The target in another test is T3, TBC1D9 (peptide code TBC1D9-002) peptide on HLA-A*02:01 (human).
T3 peptide: LLLPDVIKV
Briefly: cytokine release.
As for B1, the binding result is on record as “no recognition”.
Take B2: the binding result is “no recognition”.
The same measure, in the same setting: next, B3: “no recognition”.
Still for that read-out and setting: next, B4: “no recognition”; B5: “no recognition”.
Take B6: the binding result is recorded as “no recognition”.

A further test deals with T4, EPAS (peptide code EPAS-001) peptide on HLA-A*02:01 (human).
T4 peptide: KALEGFIAV
Briefly: cytokine release.
For B1, the binding result is “no recognition”.
Take B2: the binding result is reported as “no recognition”.
Same read-out and setting: as for B3, the entry is “no recognition”; as for B4, “no recognition”.
Same read-out and setting: next, B5: “no recognition”.
On the same count and under the same terms, next, B6: “no recognition”.

In the next test the target is T5, PSME2 (peptide code PSME2-001) peptide on HLA-A*02:01 (human).
T5 peptide: KVLERVNAV
Briefly: cytokine release.
Regarding B1, the binding result is recorded as “no recognition”.
Same read-out and setting: as for B2, the entry is “no recognition”.
Regarding B3, the binding result was “no recognition”.
B4: the binding result is listed as “no recognition”.
With B5, the binding result is recorded as “no recognition”.
Turning to B6, the binding result is “no recognition”.

The target in a further test is T6, PTRF (peptide code PTRF-001) peptide on HLA-A*02:01 (human).
T6 peptide: KLLEKVRKV
Put plainly: cytokine release.
For B1, the binding result is on record as “no recognition”.
Same read-out and setting: as for B2, the entry is “no recognition”.
Still for that read-out and setting: next, B3: “no recognition”.
Same read-out and setting: as for B4, the entry is “no recognition”; as for B5, “no recognition”; as for B6, “no recognition”.

The next test concerns the target T7, TMTC4 (peptide code TMTC4-001) peptide on HLA-A*02:01 (human).
T7 peptide: NVLEIVQKV
Briefly: cytokine release.
Regarding B1, the binding result is “no recognition”.
Still for that read-out and setting: as for B2, the entry is “no recognition”; as for B3, “no recognition”.
Consider B4, for which the binding result is given as “no recognition”.
On the same count and under the same terms, as for B5, the entry is “no recognition”; as for B6, “no recognition”.

For another test, the target named is T8, KIAA103 (peptide code KIAA103-002) peptide on HLA-A*02:01 (human).
T8 peptide: KVLNKVITV
Put plainly: cytokine release.
Turning to B1, the binding result is on record as “no recognition”.
Turning to B2, the binding result was “no recognition”.
On the same count and under the same terms, as for B3, the entry is “no recognition”; as for B4, “no recognition”.
With B5, the binding result is on record as “no recognition”.
As to B6, the binding result is listed as “no recognition”.

The target in another test is T9, TMEM175 (peptide code TMEM175-001) peptide on HLA-A*02:01 (human).
T9 peptide: ILLPYVSKV
Put plainly: cytokine release.
As for B1, the binding result is “no recognition”.
For B2, the binding result is listed as “no recognition”.
With B3, the binding result is reported as “no recognition”.
For the molecule B4, the binding result is recorded as “no recognition”.
For B5, the binding result is “no recognition”.
With B6, the binding result is “no recognition”.

The next test has as its target T10, NSD1 (peptide code NSD1-001) peptide on HLA-A*02:01 (human).
T10 peptide: KVQEQVHKV
Briefly: cytokine release.
For B1, the binding result is given as “no recognition”.
Take B2: the binding result is listed as “no recognition”.
For B3, the binding result was “no recognition”.
Turning to B4, the binding result was “no recognition”.
Still for that read-out and setting: next, B5: “no recognition”.
For B6, the binding result is “no recognition”.

In a further test the target is T11, RASAL2 (peptide code RASAL2-002) peptide on HLA-A*02:01 (human).
T11 peptide: SVLEPVISV
Put plainly: cytokine release.
On to B1, for which the binding result is on record as “no recognition”.
The same measure, in the same setting: next, B2: “no recognition”.
On the same count and under the same terms, as for B3, the entry is “no recognition”; as for B4, “no recognition”; as for B5, “no recognition”.
Same read-out and setting: as for B6, the entry is “no recognition”.
